# In patent US20210246166A1 (Bayer, published 2021):
# Bridge positions count the residues as written; N and C are the ends. Square brackets hold non-standard residues; d marks the D form. Ends that are not written are not given here. Pro(cis-4-CF3) = O=C(O)[C@@H]1C[C@H](C(F)(F)F)CN1; Oic = O=C(O)[C@@H]1C[C@@H]2CCCC[C@@H]2N1; NMeI = CC[C@H](C)[C@H](NC)C(=O)O; tBuAla = CC(C)(C)C[C@H](N)C(=O)O; PEG4 = NCCOCCOCCOCCOCCC(=O)O; Pen = CC(C)(S)[C@H](N)C(=O)O; NMeC = CN[C@@H](CS)C(=O)O; NMeA = CN[C@@H](C)C(=O)O; Orn = NCCC[C@H](N)C(=O)O; Aib = CC(C)(N)C(=O)O; Sar = CNCC(=O)O
# T1: recombinant human MASP1 active protease (amino acids 297-699, C-terminal His Tag) (human, UniProt P48740 297-699)
# T1 sequence: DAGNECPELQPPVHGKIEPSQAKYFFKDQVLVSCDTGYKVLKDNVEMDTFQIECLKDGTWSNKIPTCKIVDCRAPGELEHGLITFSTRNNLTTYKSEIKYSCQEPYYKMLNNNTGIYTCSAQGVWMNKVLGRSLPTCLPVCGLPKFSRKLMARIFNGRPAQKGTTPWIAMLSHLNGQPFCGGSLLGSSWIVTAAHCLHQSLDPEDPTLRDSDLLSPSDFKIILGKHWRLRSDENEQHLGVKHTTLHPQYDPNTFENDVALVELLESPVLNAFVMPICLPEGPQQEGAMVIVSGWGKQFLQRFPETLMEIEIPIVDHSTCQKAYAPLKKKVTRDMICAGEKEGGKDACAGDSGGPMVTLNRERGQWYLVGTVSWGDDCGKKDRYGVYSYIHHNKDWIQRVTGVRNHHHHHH
# B1: AIC+SRS-((tBu)A)-P-((4-CF3)P)-I-((N-Me)C)+IPD-NH2 (peptide)
# peptide: AICSRS[tBuAla]P[Pro(cis-4-CF3)]I[NMeC]IPD-NH2
# modifications: disulfide 3-11; N-terminus assumed
# SMILES: CC[C@H](C)[C@H](NC(=O)[C@H](C)N)C(=O)N[C@H]1CSSC[C@@H](C(=O)N[C@H](C(=O)N2CCC[C@H]2C(=O)N[C@@H](CC(=O)O)C(N)=O)[C@@H](C)CC)N(C)C(=O)[C@H]([C@@H](C)CC)NC(=O)[C@@H]2C[C@H](C(F)(F)F)CN2C(=O)[C@@H]2CCCN2C(=O)[C@H](CC(C)(C)C)NC(=O)[C@H](CO)NC(=O)[C@H](CCCNC(=N)N)NC(=O)[C@H](CO)NC1=O
# B2: A-((N-Me)I)-C+SRS-((tBu)A)-P-(Oic)-I-((N-Me)C)+IPD-NH2 (peptide)
# peptide: A[NMeI]CSRS[tBuAla]P[Oic]I[NMeC]IPD-NH2
# modifications: disulfide 3-11; N-terminus assumed
# SMILES: CC[C@H](C)[C@@H]1NC(=O)[C@@H]2C[C@@H]3CCCC[C@@H]3N2C(=O)[C@@H]2CCCN2C(=O)[C@H](CC(C)(C)C)NC(=O)[C@H](CO)NC(=O)[C@H](CCCNC(=N)N)NC(=O)[C@H](CO)NC(=O)[C@@H](NC(=O)[C@H]([C@@H](C)CC)N(C)C(=O)[C@H](C)N)CSSC[C@@H](C(=O)N[C@H](C(=O)N2CCC[C@H]2C(=O)N[C@@H](CC(=O)O)C(N)=O)[C@@H](C)CC)N(C)C1=O
# B3: ((N-Me)G)-IC+SRSLP-(Oic)-I-(Pen)+IP-(PEG3(16 atoms))-NH2 (peptide)
# peptide: [Sar]ICSRSLP[Oic]I[Pen]IP[PEG4]-NH2
# modifications: disulfide 3-11; N-terminus assumed
# SMILES: CC[C@H](C)[C@H](NC(=O)CNC)C(=O)N[C@H]1CSSC(C)(C)[C@@H](C(=O)N[C@H](C(=O)N2CCC[C@H]2C(=O)NCCOCCOCCOCCOCCC(N)=O)[C@@H](C)CC)NC(=O)[C@H]([C@@H](C)CC)NC(=O)[C@@H]2C[C@@H]3CCCC[C@@H]3N2C(=O)[C@@H]2CCCN2C(=O)[C@H](CC(C)C)NC(=O)[C@H](CO)NC(=O)[C@H](CCCNC(=N)N)NC(=O)[C@H](CO)NC1=O
# B4: AIC+SRSLP-(Oic)-I-(Pen)+IPQ-OH (peptide)
# peptide: AICSRSLP[Oic]I[Pen]IPQ-OH
# modifications: disulfide 3-11; N-terminus assumed
# SMILES: CC[C@H](C)[C@H](NC(=O)[C@H](C)N)C(=O)N[C@H]1CSSC(C)(C)[C@@H](C(=O)N[C@H](C(=O)N2CCC[C@H]2C(=O)N[C@@H](CCC(N)=O)C(=O)O)[C@@H](C)CC)NC(=O)[C@H]([C@@H](C)CC)NC(=O)[C@@H]2C[C@@H]3CCCC[C@@H]3N2C(=O)[C@@H]2CCCN2C(=O)[C@H](CC(C)C)NC(=O)[C@H](CO)NC(=O)[C@H](CCCNC(=N)N)NC(=O)[C@H](CO)NC1=O
# B5: (Orn)-IC+SRS-((tBu)A)-PPI-(Pen)+IP-NH2 (peptide)
# peptide: [Orn]ICSRS[tBuAla]PPI[Pen]IP-NH2
# modifications: disulfide 3-11; N-terminus assumed
# SMILES: CC[C@H](C)[C@H](NC(=O)[C@@H](N)CCCN)C(=O)N[C@H]1CSSC(C)(C)[C@@H](C(=O)N[C@H](C(=O)N2CCC[C@H]2C(N)=O)[C@@H](C)CC)NC(=O)[C@H]([C@@H](C)CC)NC(=O)[C@@H]2CCCN2C(=O)[C@@H]2CCCN2C(=O)[C@H](CC(C)(C)C)NC(=O)[C@H](CO)NC(=O)[C@H](CCCNC(=N)N)NC(=O)[C@H](CO)NC1=O
# B6: ((N-Me)A)-IC+SRS-((tBu)A)-PPI-(Pen)+IP-NH2 (peptide)
# peptide: [NMeA]ICSRS[tBuAla]PPI[Pen]IP-NH2
# modifications: disulfide 3-11; N-terminus assumed
# SMILES: CC[C@H](C)[C@H](NC(=O)[C@H](C)NC)C(=O)N[C@H]1CSSC(C)(C)[C@@H](C(=O)N[C@H](C(=O)N2CCC[C@H]2C(N)=O)[C@@H](C)CC)NC(=O)[C@H]([C@@H](C)CC)NC(=O)[C@@H]2CCCN2C(=O)[C@@H]2CCCN2C(=O)[C@H](CC(C)(C)C)NC(=O)[C@H](CO)NC(=O)[C@H](CCCNC(=N)N)NC(=O)[C@H](CO)NC1=O
# B7: HIC+SRS-((tBu)A)-PPI-(Pen)+IPD-NH2 (peptide)
# peptide: HICSRS[tBuAla]PPI[Pen]IPD-NH2
# modifications: disulfide 3-11; N-terminus assumed
# SMILES: CC[C@H](C)[C@H](NC(=O)[C@@H](N)Cc1c[nH]cn1)C(=O)N[C@H]1CSSC(C)(C)[C@@H](C(=O)N[C@H](C(=O)N2CCC[C@H]2C(=O)N[C@@H](CC(=O)O)C(N)=O)[C@@H](C)CC)NC(=O)[C@H]([C@@H](C)CC)NC(=O)[C@@H]2CCCN2C(=O)[C@@H]2CCCN2C(=O)[C@H](CC(C)(C)C)NC(=O)[C@H](CO)NC(=O)[C@H](CCCNC(=N)N)NC(=O)[C@H](CO)NC1=O
# B8: AIC+SRSLP-(Oic)-I-(Pen)+I-OH (peptide)
# peptide: AICSRSLP[Oic]I[Pen]I-OH
# modifications: disulfide 3-11; N-terminus assumed
# SMILES: CC[C@H](C)[C@H](NC(=O)[C@H]1NC(=O)[C@H]([C@@H](C)CC)NC(=O)[C@@H]2C[C@@H]3CCCC[C@@H]3N2C(=O)[C@@H]2CCCN2C(=O)[C@H](CC(C)C)NC(=O)[C@H](CO)NC(=O)[C@H](CCCNC(=N)N)NC(=O)[C@H](CO)NC(=O)[C@@H](NC(=O)[C@@H](NC(=O)[C@H](C)N)[C@@H](C)CC)CSSC1(C)C)C(=O)O
# B9: (Aib)-IC+SRS-((tBu)A)-PPI-(Pen)+IPD-NH2 (peptide)
# peptide: [Aib]ICSRS[tBuAla]PPI[Pen]IPD-NH2
# modifications: disulfide 3-11; N-terminus assumed
# SMILES: CC[C@H](C)[C@@H]1NC(=O)[C@@H]2CCCN2C(=O)[C@@H]2CCCN2C(=O)[C@H](CC(C)(C)C)NC(=O)[C@H](CO)NC(=O)[C@H](CCCNC(=N)N)NC(=O)[C@H](CO)NC(=O)[C@@H](NC(=O)[C@@H](NC(=O)C(C)(C)N)[C@@H](C)CC)CSSC(C)(C)[C@@H](C(=O)N[C@H](C(=O)N2CCC[C@H]2C(=O)N[C@@H](CC(=O)O)C(N)=O)[C@@H](C)CC)NC1=O
# B10: AIC+SRS-((t-Bu)A)-PPIC+ID-OH (peptide)
# peptide: AICSRS[tBuAla]PPICID-OH
# modifications: disulfide 3-11; N-terminus assumed
# SMILES: CC[C@H](C)[C@H](NC(=O)[C@H](C)N)C(=O)N[C@H]1CSSC[C@@H](C(=O)N[C@H](C(=O)N[C@@H](CC(=O)O)C(=O)O)[C@@H](C)CC)NC(=O)[C@H]([C@@H](C)CC)NC(=O)[C@@H]2CCCN2C(=O)[C@@H]2CCCN2C(=O)[C@H](CC(C)(C)C)NC(=O)[C@H](CO)NC(=O)[C@H](CCCNC(=N)N)NC(=O)[C@H](CO)NC1=O
# B11: AIC+SRSLP-(Oic)-I-(Pen)+IPE-NH2 (peptide)
# peptide: AICSRSLP[Oic]I[Pen]IPE-NH2
# modifications: disulfide 3-11; N-terminus assumed
# SMILES: CC[C@H](C)[C@H](NC(=O)[C@H](C)N)C(=O)N[C@H]1CSSC(C)(C)[C@@H](C(=O)N[C@H](C(=O)N2CCC[C@H]2C(=O)N[C@@H](CCC(=O)O)C(N)=O)[C@@H](C)CC)NC(=O)[C@H]([C@@H](C)CC)NC(=O)[C@@H]2C[C@@H]3CCCC[C@@H]3N2C(=O)[C@@H]2CCCN2C(=O)[C@H](CC(C)C)NC(=O)[C@H](CO)NC(=O)[C@H](CCCNC(=N)N)NC(=O)[C@H](CO)NC1=O
# Biological target: T1, recombinant human MASP1 active protease …
# Assay: cell-based or functional assay
row,human MASP1 IC50 [nM],Binder
1,3.2,B1
2,3.1,B2
3,3.2,B3
4,3,B4
5,3.2,B5
6,3.2,B6
7,3.2,B7
8,3,B8
9,1.19,B9
10,3.1,B10
11,3.1,B11

# Biological target: recombinant human MASP2 active protease (amino acids 297-686, C-terminal His Tag) (human, UniProt O00187 297-686)
# Assay: cell-based or functional assay
# Chain of recombinant human MASP2 active protease (amino acids 297-686, C-terminal His Tag) (O00187 other isoform, or with tags, fused parts or gaps limits assumed): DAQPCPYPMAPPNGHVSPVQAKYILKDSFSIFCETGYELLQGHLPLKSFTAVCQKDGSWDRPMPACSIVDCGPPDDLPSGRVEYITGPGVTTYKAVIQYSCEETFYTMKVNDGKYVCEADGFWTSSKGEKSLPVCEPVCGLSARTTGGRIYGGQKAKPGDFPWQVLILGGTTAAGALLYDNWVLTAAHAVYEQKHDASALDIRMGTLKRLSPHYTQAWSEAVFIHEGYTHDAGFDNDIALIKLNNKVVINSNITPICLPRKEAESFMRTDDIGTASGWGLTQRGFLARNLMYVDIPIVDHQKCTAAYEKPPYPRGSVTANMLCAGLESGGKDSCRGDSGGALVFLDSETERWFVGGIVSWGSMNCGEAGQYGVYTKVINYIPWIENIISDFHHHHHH
row,human MASP2 IC50 [nM],Binder
1,1600,B1
2,590,B2
3,79,B3
4,140,B4
5,93,B5
6,24,B6
7,75,B7
8,360,B8
9,36,B9
10,83,B10
11,160,B11
